Results as given in patent publication US20230295332A1 (INTERIUS BIOTHERAPEUTICS, published 2023).

How the values were obtained:
Experiment in all cases: cell-based or functional assay
[1] = biological target: T1, non-human primate CD7 (non-human primate)
T1 chain: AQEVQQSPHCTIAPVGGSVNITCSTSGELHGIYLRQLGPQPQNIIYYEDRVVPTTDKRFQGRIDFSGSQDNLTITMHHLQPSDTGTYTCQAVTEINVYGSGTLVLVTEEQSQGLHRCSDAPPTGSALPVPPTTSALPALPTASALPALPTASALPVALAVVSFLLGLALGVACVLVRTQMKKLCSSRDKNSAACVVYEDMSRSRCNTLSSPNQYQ

[2] = biological target: T2, human CD7 (human, UniProt P09564 26-240)
T2 sequence: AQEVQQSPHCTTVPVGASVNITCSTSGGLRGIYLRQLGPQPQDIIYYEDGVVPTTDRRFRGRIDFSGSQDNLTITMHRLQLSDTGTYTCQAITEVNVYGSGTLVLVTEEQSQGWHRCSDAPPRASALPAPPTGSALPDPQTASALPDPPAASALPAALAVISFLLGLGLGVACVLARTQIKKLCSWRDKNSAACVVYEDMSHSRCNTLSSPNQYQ

[3] = biological target: non-human primate CD8 (non-human primate)
[4] = biological target: human CD8 (human, UniProt P01732 22-235; P10966 22-210)
Sequence of human CD8 (P01732 22-235 Y112C limits assumed, chain 1 of 2): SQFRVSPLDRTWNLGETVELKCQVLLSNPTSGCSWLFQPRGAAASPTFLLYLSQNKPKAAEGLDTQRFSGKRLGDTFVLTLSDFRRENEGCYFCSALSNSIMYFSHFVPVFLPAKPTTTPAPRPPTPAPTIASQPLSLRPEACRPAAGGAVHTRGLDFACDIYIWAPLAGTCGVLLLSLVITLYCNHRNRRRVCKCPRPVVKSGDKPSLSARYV
Sequence of human CD8 (P10966 other isoform, or with tags, fused parts or gaps limits assumed, chain 2 of 2): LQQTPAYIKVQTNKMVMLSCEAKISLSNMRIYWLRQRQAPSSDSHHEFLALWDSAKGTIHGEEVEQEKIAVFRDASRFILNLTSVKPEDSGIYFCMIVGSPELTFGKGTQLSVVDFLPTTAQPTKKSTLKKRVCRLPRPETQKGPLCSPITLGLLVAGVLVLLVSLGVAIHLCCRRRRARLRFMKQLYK

Row | Binder | NHP PBMC Transduction (% positive) [1] [% positive] | Human PBMC Transduction (% positive) [2] [% positive] | NHP PBMC Transduction (% positive) [3] [% positive] | Human PBMC Transduction (% positive) [4] [% positive]
1 | CD7 Binder (SEQ ID NO. 52) (scFv) scFv: QVQLQQPGAELVKPGASVKLSCKASGYPFTSYWIHWVKQRPGRGLEWLGRIDPNSGDTKYNEKFKNKATLTVDKSSTTAYMQLSSLTSEDSAVYYCARSPYYSNDNSMDYWGQGTSVTVSSGGGGSGGGGSGGGGSGGGGSDILLTQSPAILSVSPGERVSFSCRASQSIGTSIHWYQQRTNDSPRLLIKYASESISGIPSRFSGSGSGTDFTLSINSVESEDIADYYCQQSNSWPTTFGGGTKLEIKR | 5.64 | 21.6 | – | –
2 | CD7 Binder (SEQ ID NO. 51) (scFv) scFv: DILLTQSPAILSVSPGERVSFSCRASQSIGTSIHWYQQRTNDSPRLLIKYASESISGIPSRFSGSGSGTDFTLSINSVESEDIADYYCQQSNSWPTTFGGGTKLEIKRGGGGSGGGGSGGGGSGGGGSQVQLQQPGAELVKPGASVKLSCKASGYPFTSYWIHWVKQRPGRGLEWLGRIDPNSGDTKYNEKFKNKATLTVDKSSTTAYMQLSSLTSEDSAVYYCARSPYYSNDNSMDYWGQGTSVTVSS | 2.61 | 19.3 | – | –
3 | CD8 Binder (SEQ ID NO. 69) (scFv) scFv: NIVLTQSPASLAVSLGQRATISCRASESVDGFGNSFMNWYQQKPGQSPKLLIYLASNLESGVPARFSGSGSRTDFTLTIDPVEADDAATYYCQQNNEDPYTFGGGTKLEIKRGGGGSGGGGSGGGGSGGGGSEVQLQQSGPELVKPGASVKISCKASRYTFTDYNLHWVKLSHEKSLEWIGFIYPYNGGTGYNQKFKNKAKLTVDYSSSTAYMELRSLTSVDAAVYYCARDHRYNEGVSFDYWGQGTTLTVSS | – | – | 1.8 | 4.09
4 | CD8 binder of SEQ ID NO: 70 (printed in Table 1 as 'CD7 Binder (SEQ ID NO. 70)') (scFv) scFv: EVQLQQSGPELVKPGASVKISCKASRYTFTDYNLHWVKLSHEKSLEWIGFIYPYNGGTGYNQKFKNKAKLTVDYSSSTAYMELRSLTSVDAAVYYCARDHRYNEGVSFDYWGQGTTLTVSSGGGGSGGGGSGGGGSGGGGSNIVLTQSPASLAVSLGQRATISCRASESVDGFGNSFMNWYQQKPGQSPKLLIYLASNLESGVPARFSGSGSRTDFTLTIDPVEADDAATYYCQQNNEDPYTFGGGTKLEIKR | – | – | 0.76 | 3.17
